Data on two molecules can be found in patent US20210113649A1 (UNIVERSITY OF FLORIDA RESEARCH FOUNDATION, published 2021).

In one assay the target is T1, GFP-DAXX S495A (human, UniProt Q9UER7 1-740).
T1 construct: also called S495A mutant; not shown: GFP from the pEGFP-C2 vector
Description: anti-FLAG IP of 293T cells cotransfected with GFP-DAXX constructs and FLAG-SREBP2 (FIG. 6A). The text has this:
(§1) FIGS. 6A to 6H show mutation of DAXX phosphorylation sites disrupts DAXX-SREBP2 interaction, impairs lipogenesis and tumor growth. […] The GFP-wt DAXX was transfected alone in the absence of FLAG-SREBP2 as a control (lane 7). The lysates of transfected cells were subjected to IP with an anti-FLAG antibody, Both DAXX and FLAG-SREBP2 were detected in immunoprecipitates and input lysates. […] The precipitated DNAs were subjected to qPCR with primers specific to promoter regions of the indicated genes. qPCRs for the 3′ UTR of the FASN and ACACA genes serve as negative control. […] ATRX qRT-PCR serves as a control for genes not regulated by SREBPs. […] Cells were serum-starved for 24 h. DMSO or a mTOR inhibitor (0.1 μM final concentration) was added for 5 h before cell lysis. […] RNAs were isolated from cells cultured in serum-free DMEM for 24 h as in FIG. 6D.

The next assay has as its target T2, GFP-DAXX S668A/S671A (human, UniProt Q9UER7 1-740).
T2 construct: also called S668A/S671A mutant; not shown: GFP from the pEGFP-C2 vector
The description is as above.
Description: as §1

Another assay has as its target T3, GFP-DAXX S690A (human, UniProt Q9UER7 1-740).
T3 construct: also called S690A mutant; not shown: GFP from the pEGFP-C2 vector
The description is as above.
Description: as §1

In a further assay the target is T4, GFP-DAXX S671A (human, UniProt Q9UER7 1-740).
T4 construct: also called S671A mutant; not shown: GFP from the pEGFP-C2 vector
T4 sequence (Q9UER7 whole entry S671A): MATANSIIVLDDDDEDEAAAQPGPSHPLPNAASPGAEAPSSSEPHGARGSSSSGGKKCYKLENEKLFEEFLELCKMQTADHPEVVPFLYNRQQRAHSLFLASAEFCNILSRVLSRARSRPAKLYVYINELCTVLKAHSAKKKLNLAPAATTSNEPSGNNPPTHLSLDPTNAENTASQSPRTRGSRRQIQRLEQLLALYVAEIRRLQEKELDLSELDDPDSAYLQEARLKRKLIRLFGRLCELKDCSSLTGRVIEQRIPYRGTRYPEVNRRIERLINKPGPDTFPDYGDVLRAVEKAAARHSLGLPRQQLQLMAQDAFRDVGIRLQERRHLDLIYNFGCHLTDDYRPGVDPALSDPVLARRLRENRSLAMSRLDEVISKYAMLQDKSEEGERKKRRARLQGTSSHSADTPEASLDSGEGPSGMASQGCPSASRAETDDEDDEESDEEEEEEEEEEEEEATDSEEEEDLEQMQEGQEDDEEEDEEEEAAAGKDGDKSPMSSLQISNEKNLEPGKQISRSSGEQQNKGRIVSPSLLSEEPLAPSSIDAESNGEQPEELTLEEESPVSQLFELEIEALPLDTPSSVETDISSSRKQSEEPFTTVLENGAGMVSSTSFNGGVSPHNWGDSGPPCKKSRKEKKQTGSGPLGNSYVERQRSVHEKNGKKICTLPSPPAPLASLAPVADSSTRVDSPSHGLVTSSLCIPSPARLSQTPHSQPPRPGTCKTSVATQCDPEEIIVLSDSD
The description is as above.
Description: as §1

The target in assay [1] is T5, DAXX (death domain-associated protein), endogenous (human, UniProt Q9UER7 1-740).
T5 construct: Endogenous protein pulled down with an anti-DAXX mAb or co-precipitated with FLAG-SREBP2; also called endogenous DAXX
T5 sequence (Q9UER7 whole entry, the tested form may be a part): as the sequence (Q9UER7 whole entry S671A) above, with A671S counted along it
Description: IP of MDA-MB-231 or PC3 cell extracts with an anti-DAXX mAb, immunoblot for SREBP2 (M, mature). The text has this: FIGS. 2A to 2E show DAXX binds to SREBP2. […] MDA-MB-231 or PC3 cell extracts were subjected to IP with a control (IgG) or an anti-DAXX monoclonal antibody. The immunoprecipitated SREBP2 was detected. P, precursor; M, mature SREBP2. FIGS. 2B, 2C, and 2D show there are two independent binding sites in DAXX for mature SREBP2. […] The cell lysates were subjected to FLAG IP. […] HC: IgG heavy chain. *: non-specific band. FIG. 2E is a schematic drawing of DAXX-SREBP2 interactions. The two independent SREBP2-binding sites are depicted. Also shown is the sequence of aa 327-335 within the DAXX HBD critical for the DAXX-SREBP2 interactions. SIM: SUMO-interacting motif; DHB: DAXX helical bundle; HBD: histone-binding domain; PEST: proline, glutamic acid, serine, and threonine-rich sequence. Numbers refer to aa residue positions in the DAXX protein. Note that the irrelevant lanes in the same blots (between the input and IP samples in the PC3 blot in panel A, between lanes 4 and 5, and lanes 12 and 13 in panel B, and between lanes 1 and 2 in panel D) are left out.
Immunoprecipitation (IP) of total cell extracts with anti-DAXX antibody evidenced co-precipitation of two SREBP2 proteins (FIG. 2A) that correspond to the precursor (P) and the mature (M) forms of SREBP2. […]

T1 sequence (Q9UER7 whole entry S495A): as the sequence (Q9UER7 whole entry S671A) above, with S495A, A671S counted along it
T3 sequence (Q9UER7 whole entry S690A): as the sequence (Q9UER7 whole entry S671A) above, with A671S, S690A counted along it
T2 sequence (Q9UER7 whole entry S668A/S671A): as the sequence (Q9UER7 whole entry S671A) above, with S668A counted along it

B1: FLAG-SREBP2 (mature) (other, UniProt Q12772 1-481, looked up)
chain: MDDSGELGGLETMETLTELGDELTLGDIDEMLQFVSNQVGEFPDLFSEQLCSSFPGSGGSGSSSGSSGSSSSSSNGRGSSSGAVDPSVQRSFTQVTLPSFSPSAASPQAPTLQVKVSPTSVPTTPRATPILQPRPQPQPQPQTQLQQQTVMITPTFSTTPQTRIIQQPLIYQNAATSFQVLQPQVQSLVTSSQVQPVTIQQQVQTVQAQRVLTQTANGTLQTLAPATVQTVAAPQVQQVPVLVQPQIIKTDSLVLTTLKTDGSPVMAAVQNPALTALTTPIQTAALQVPTLVGSSGTILTTMPVMMGQEKVPIKQVPGGVKQLEPPKEGERRTTHNIIEKRYRSSINDKIIELKDLVMGTDAKMHKSGVLRKAIDYIKYLQQVNHKLRQENMVLKLANQKNKLLKGIDLGSLVDNEVDLKIEDFNQNVLLMSPPASDSGSQAGFSPYSIDSEPGSPLLDDAKVKDEPDSPPVALGMVDRSR
notes: domain: mature form; also called mature SREBP2 (Plasmid #26807); not shown: FLAG tag
B1: the binding result in the assay with GFP-DAXX S495A, in the assay with GFP-DAXX S668A/S671A, in the assay with GFP-DAXX S690A and in the assay with GFP-DAXX S671A was “no binding” throughout.

B2: SREBP2 mature form, endogenous (other, human, UniProt Q12772 1-484, looked up)
chain: MDDSGELGGLETMETLTELGDELTLGDIDEMLQFVSNQVGEFPDLFSEQLCSSFPGSGGSGSSSGSSGSSSSSSNGRGSSSGAVDPSVQRSFTQVTLPSFSPSAASPQAPTLQVKVSPTSVPTTPRATPILQPRPQPQPQPQTQLQQQTVMITPTFSTTPQTRIIQQPLIYQNAATSFQVLQPQVQSLVTSSQVQPVTIQQQVQTVQAQRVLTQTANGTLQTLAPATVQTVAAPQVQQVPVLVQPQIIKTDSLVLTTLKTDGSPVMAAVQNPALTALTTPIQTAALQVPTLVGSSGTILTTMPVMMGQEKVPIKQVPGGVKQLEPPKEGERRTTHNIIEKRYRSSINDKIIELKDLVMGTDAKMHKSGVLRKAIDYIKYLQQVNHKLRQENMVLKLANQKNKLLKGIDLGSLVDNEVDLKIEDFNQNVLLMSPPASDSGSQAGFSPYSIDSEPGSPLLDDAKVKDEPDSPPVALGMVDRSRILL
notes: domain: mature form (N-terminal domain released by cleavage); also called mature SREBP2
Take B2: the binding result in assay [1] is given as “binds”.
